T1: Hfp N-terminal RRMs (half pint, PUF60 homolog) (UniProt Q8T6B9 110-326)
T1 sequence: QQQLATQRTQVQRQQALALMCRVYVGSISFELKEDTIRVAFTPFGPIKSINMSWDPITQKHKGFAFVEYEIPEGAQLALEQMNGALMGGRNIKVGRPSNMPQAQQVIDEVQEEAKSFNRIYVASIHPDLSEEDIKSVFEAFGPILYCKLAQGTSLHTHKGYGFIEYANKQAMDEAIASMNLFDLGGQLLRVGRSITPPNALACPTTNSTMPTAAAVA

B1: act57B PT (ssRNA)
RNA: UCUUCCCCUC
B2: Negative control scramble (ssRNA)
RNA: UACGUACGUA
B3: recombinant protein composed of the two N-terminal RNA Recognition Motifs (RRM) of Half pint (Hfp) (domain or fragment, Drosophila, UniProt Q8T6B9 110-326, looked up)
chain: T1 sequence
B4: Positive control (Drosophila consensus polypyrimidine-rich sequence) (ssRNA)
RNA: UUUUUCUCUU

Tests used:
[1] = biological target: T1, Hfp N-terminal RRMs (half pint, PUF60 …); assay: EMSA
[2] = biological target: the molecule itself; assay: SDS-PAGE and Western blot

Binder | binding result [1] | stoichiometry N [2]
B1 | binds | 
B2 | no binding | 
B3 |  | 2
B4 | binds | 

From publication doi:10.1101/2020.06.30.179986 (bioRxiv, 2020)
